The target of assay [1] is T1, human native CD3 on live cells (HuT78, Jurkat) (human, UniProt P07766 23-207; P09693 23-182; P04234 22-171).
T1 construct: whole, on cells; also called human CD3
The experiment in a line: FACS, HuT78 cells. Here is the method:
(§1) For affinity determination, antibodies were captured by anti-human Fc surface, and used in the affinity-assay based on surface plasmon resonance (SPR) technology. The binding activity of humanized sp34 to bind native CD3 on live cells was evaluated using HuT78 cells in a FACS based assay. Live HuT78 cells were seeded in 96-well plate, and were incubated with a series of dilutions of chimeric or humanized sp34. Mouse anti-Human IgG was used as second antibody to detect antibody binding to the cell surface. EC50 values for dose-dependent binding to human native CD3 were determined by fitting the dose-response data to the four-parameter logistic model with GraphPad Prism.
In general terms: Flow cytometry measures light scatter and fluorescence of single cells or particles in a stream.

The target in assay [2] is T1, human native CD3 on live cells (HuT78, …). The experiment in a line: FACS, HuT78 cells. Here is the method:
as §1
The source holds these as a separate data set.

Assay [3] has as its target T2, CD3ε (SPR analyte) (UniProt P07766 23-126, limits assumed). The experiment in a line: SPR, antibody captured by anti-human Fc. Here is the method: as §1
The target in assay [4] is T2, CD3ε (SPR analyte). The experiment in a line: SPR, antibody captured by anti-human Fc. How it is done:
as §1
This is another data set of the same source. For orientation: Surface plasmon resonance follows binding to a sensor surface in real time, without labels.

Assay [5] addresses T1, human native CD3 on live cells (HuT78, …). The assay is described as follows: flow cytometry on live HuT78 cells, mouse anti-human IgG secondary, MFI. How it is done: as §1
For assay [6] the target is unchanged. Described as above. How it is done: as §1
The source holds these as a separate data set.

Assay [7] concerns the target T2, CD3ε (SPR analyte). The assay is described as follows: SPR.
Assay [8] has as its target T3, human claudin 6 (CLDN6) (human, UniProt P56747 1-220).
T3 construct: also called human CLDN6; hCLDN6
T3 sequence: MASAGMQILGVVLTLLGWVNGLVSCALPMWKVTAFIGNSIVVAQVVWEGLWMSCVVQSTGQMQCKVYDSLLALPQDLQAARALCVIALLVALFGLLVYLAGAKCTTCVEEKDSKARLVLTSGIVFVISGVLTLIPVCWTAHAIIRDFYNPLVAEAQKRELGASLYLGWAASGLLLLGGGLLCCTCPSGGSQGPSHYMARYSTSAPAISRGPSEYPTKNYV
The assay is described as follows: FACS, HEK293-hCLDN6 cells.

Assay [9] has as its target T3, human claudin 6 (CLDN6). The assay is described as follows: FACS, HEK293T-hCLDN6 cells.
Assay [10] has as its target T4, cyno CLDN6 (cyno).
T4 construct: whole, on cells; also called cynomolgus CLDN6
The experiment in a line: FACS, HEK293T-cyno-CLDN6 cells.

Assay [11] addresses T4, cyno CLDN6. The assay is described as follows: FACS, HEK293T_cyno-CLDN6 cells.
Assay [12] deals with T3, human claudin 6 (CLDN6). The experiment in a line: FACS, HEK293T/human CLDN6 cells. How it is done:
(§2) For affinity determination, CLDN6 over-expressing HEK293T cells and cancer cell line PA-1 which express high levels of human CLDN6 were used to evaluate the binding activity of BG87P related engineering variants. Live cells were seeded in 96-well plate, and were incubated with a series of dilutions of chBG87P and engineered variants thereof. Goat anti-human IgG was used as second antibody to detect antibody binding to the cell surface. EC50 values for dose-dependent binding to CLDN6 expressing cell lines were determined by fitting the dose-response data to the four-parameter logistic model with GraphPad Prism. Cell binding activity of 1st round of BG87P humanization variants against HEK293T/human CLDN6 were compared to chBG87P and shown in FIG. 1A.
Beginning with the chBG87P antibody and BG87P-Bz0, several additional amino acid changes in the CDR regions of both VH and VL were made to further improve the biophysical properties for therapeutics use in human. The considerations included removing post translational modifications (PTM), improved heat stability (Tm), while maintaining binding activities, the resulted variants are BG87P-m1 (VH SEQ ID NO: 31 and VL SEQ ID NO: 8), BG87P-m2 (VH SEQ ID NO: 32 and VL SEQ ID NO: 8), BG87P-m3 (VH SEQ ID NO: 33 and VL SEQ ID NO: 8), and BG87P-m4 (VH SEQ ID NO: 34 and VL SEQ ID NO: 8) and BG87P-m5 (VH SEQ ID NO: 35 and VL SEQ ID NO: 14), BG87P-m6 (VH SEQ ID NO: 36 and VL SEQ ID NO 14), BG87P-m7 (VH SEQ ID NO: 37 and VL SEQ ID NO: 14), and BG87P-m8 (VH SEQ ID NO: 38 and VL SEQ ID NO: 14). Cell binding activity of chBG87P and BG87P-Bz0 related PTM removal variants against HEK293T/human CLDN6 was compared with chBG87P and BG87-Bz0, respectively ([…]). Cell binding affinity (EC50) and Emax (MFI) was normalized to chBG87P for directly comparison and ranking (Table 7).

In assay [13] the target is T3, human claudin 6 (CLDN6). The assay is described as follows: FACS, PA-1 cells (endogenous CLDN6). Here is the method:
as §2

Assay [14] deals with T4, cyno CLDN6. The assay is described as follows: flow cytometry on CHOK1/cyno CLDN6 cells, MFI(PE).
In the next assay the target is T5, human claudin 9 (CLDN9) (human, UniProt O95484 1-217).
T5 construct: also called human CLDN9
T5 sequence: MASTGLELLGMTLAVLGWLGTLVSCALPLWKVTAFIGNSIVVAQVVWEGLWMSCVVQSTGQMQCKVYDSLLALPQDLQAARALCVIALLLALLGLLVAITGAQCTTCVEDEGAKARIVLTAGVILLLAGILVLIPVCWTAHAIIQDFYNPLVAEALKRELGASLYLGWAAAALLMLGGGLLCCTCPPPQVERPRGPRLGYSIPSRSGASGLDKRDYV
The experiment in a line: flow cytometry on HEK293T/human CLDN9 cells, MFI(PE).

Assay [15] deals with T3, human claudin 6 (CLDN6). The assay is described as follows: flow cytometry on HEK293T/human CLDN6 cells, goat anti-human IgG secondary, MFI(PE). Here is the method: as §2
The next assay deals with T6, mouse CLDN6 (mouse, UniProt Q9Z262 1-219).
T6 construct: whole, on cells
T6 sequence (looked up): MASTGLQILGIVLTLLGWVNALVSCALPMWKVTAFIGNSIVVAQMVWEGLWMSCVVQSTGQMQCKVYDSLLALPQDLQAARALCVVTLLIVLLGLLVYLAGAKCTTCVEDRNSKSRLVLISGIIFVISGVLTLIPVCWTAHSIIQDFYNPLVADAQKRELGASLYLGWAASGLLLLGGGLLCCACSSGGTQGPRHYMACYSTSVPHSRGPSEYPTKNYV
The assay is described as follows: flow cytometry on CHOK1/mouse CLDN6 cells, MFI(PE).

Where two headings read alike, the source gives them in different places.

As usually defined, the EC50 is the midpoint of the concentration-response curve. By Kd is commonly meant the constant that tells how readily two partners part at equilibrium. Higher therefore signals weaker binding. As a reminder, the koff is the rate constant with which the complex falls apart. A word on the kon: it is the rate constant with which the complex forms. Lower therefore signals slow association. The EC50 (read off the curve) is the concentration giving half of the maximal effect. Read a low EC50 (read off the curve) as an effect from little substance.

T1 sequence (P07766 23-207, chain 1 of 3): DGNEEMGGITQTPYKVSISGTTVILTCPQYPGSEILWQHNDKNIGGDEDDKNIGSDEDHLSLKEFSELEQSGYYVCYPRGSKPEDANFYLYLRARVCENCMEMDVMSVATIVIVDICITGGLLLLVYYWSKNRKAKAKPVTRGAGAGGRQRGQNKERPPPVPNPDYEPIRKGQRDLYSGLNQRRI
T1 sequence (P09693 23-182, chain 2 of 3): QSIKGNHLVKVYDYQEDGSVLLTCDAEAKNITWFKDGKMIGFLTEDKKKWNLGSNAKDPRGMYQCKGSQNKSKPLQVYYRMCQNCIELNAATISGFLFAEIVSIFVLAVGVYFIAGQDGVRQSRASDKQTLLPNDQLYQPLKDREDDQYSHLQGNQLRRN
T1 sequence (P04234 22-171, chain 3 of 3): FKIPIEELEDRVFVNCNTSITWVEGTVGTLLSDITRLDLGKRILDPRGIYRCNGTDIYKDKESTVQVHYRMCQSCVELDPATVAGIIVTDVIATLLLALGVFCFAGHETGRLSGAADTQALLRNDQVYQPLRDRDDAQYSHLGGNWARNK
T2 sequence (P07766 23-126 limits assumed): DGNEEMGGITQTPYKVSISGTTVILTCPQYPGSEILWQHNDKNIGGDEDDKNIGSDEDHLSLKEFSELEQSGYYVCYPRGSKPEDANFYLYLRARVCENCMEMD

B1: chimeric sp34 (ch-sp34) (antibody, V domains shown)
VH: EVQLVESGGGLVQPKGSLKLSCAASGFTFNTYAMNWVRQAPGKGLEWVARIRSKYNNYATYYADSVKDRFTISRDDSQSILYLQMNNLKTEDTAMYYCVRHGNFGNSYVSWFAYWGQGTLVTVSS
VL: QAVVTQESALTTSPGETVTLTCRSSTGAVTTSNYANWVQEKPDHLFTGLIGGTNKRAPGVPARFSGSLIGDKAALTITGAQTEDEAIYFCALWYSNLWVFGGGTKLTVL
For the molecule B1, the EC50 worked out at 1.9 nM in [1] and 2.49 nM in assay [2]. Also, the Kd with CD3ε (SPR analyte) [3] and with CD3ε (SPR analyte) [4] was 2.3 nM throughout. Moreover, the koff in the assay with CD3ε (SPR analyte) [3] and with CD3ε (SPR analyte) [4] was 0.000496 s⁻¹ in each case. Besides, the kon with CD3ε (SPR analyte) [3] and with CD3ε (SPR analyte) [4] was 216000 M⁻¹ s⁻¹ in each case. For the same molecule, the “EC50 (read off the curve)” value was roughly 0.3 µg/mL in [5] and roughly 0.4 µg/mL in [6].

B2: humanized sp34 BG53P (antibody, V domains shown)
VH: EVQLVESGGGLVQPGGSLRLSCAASGFTFNTYAMNWVRQAPGKGLEWVARIRSKYNNYATYYADSVKDRFTISRDDAKSSLYLQMNSLRAEDTAMYYCVRHGNFGNSYVSWFAYWGQGTLVTVSS
VL: QAVVTQSPATLSVSPGERATLSCRSSTGAVTTSNYANWVQEKPGQLFTGLIGGTNKRAPGIPARFSGSLSGDEATLTISSLQSEDFAIYFCALWYSNLWVFGGGTKVEIK
notes: also called hu-sp34
In the case of B2, the EC50 in [1] was 1.8 nM; in assay [2], 1.72 nM. Further, the Kd came to 2.65 nM with CD3ε (SPR analyte) [3] and 4.58 nM with CD3ε (SPR analyte) [4]. Further, the koff with CD3ε (SPR analyte) [3] was determined as 0.000525 s⁻¹; with CD3ε (SPR analyte) [4], 0.000484 s⁻¹. Further, the figures for the kon in the assay with CD3ε (SPR analyte) [3] and in the assay with CD3ε (SPR analyte) [4] were 198000 M⁻¹ s⁻¹ and 106000 M⁻¹ s⁻¹, respectively. The “EC50 (read off the curve)” value in assay [5] and in assay [6] was roughly 0.3 µg/mL each time.

B3: humanized sp34 BG56P (antibody, V domains shown)
VH: EVQLVESGGGLVQPGGSLRLSCAASGFTFNTYAMNWVRQAPGKGLEWVARIRSKYNNYATYYADSVKDRFTISRDDAKNSLYLQMNSLRAEDTAVYYCVRHGNFGNSYVSWFAYWGQGTLVTVSS
VL: EIVLTQSPATLSVSPGERATLSCRSSTGAVTTSNYANWVQQKPGQAPRGLIGGTNKRAPGIPARFSGSLSGDEATLTISSLQSEDFAVYYCALWYSNLWVFGGGTKVEIK
As to B3, the Kd with CD3ε (SPR analyte) [7] and with CD3ε (SPR analyte) [4] was 7.06 nM throughout. In addition, the koff in the assay with CD3ε (SPR analyte) [7] and with CD3ε (SPR analyte) [4] was 0.000325 s⁻¹ throughout. For the same molecule, the kon with CD3ε (SPR analyte) [7] and with CD3ε (SPR analyte) [4] was 46000 M⁻¹ s⁻¹ in each case. The EC50 in assay [1] and in assay [2] was 4.69 nM in each case. Moreover, the “EC50 (read off the curve)” value in [5] and in assay [6] was roughly 0.7 µg/mL throughout.

B4: chimeric BG87P antibody (chBG87P) (antibody, V domains shown)
VH: QIQLQQSGPELVKPGASVKISCKASGYSFTDYHINWVKQRPGQGLEWIGWIYPGSGYTKYNEKFKVKATLTVDTSSSTAYMHLTSLTSEDSAVYFCARSGIYHYVSSYYFDHWGQGTTLTVSS
VL: DIVMTQSHTFMSTSVGDRVSITCKASQDVGTAVAWYQQKPGQSPKLLIYWASTRHTGVPDRFTGSGSGTDFTLTISNVQSEDLADYFCQQYSSYTFGGGTKLEIK
On to B4, for which the “FACS-Ec50 ratio to BG87P” value with human claudin 6 (CLDN6) [8] was determined as 1 ratio. Besides, the “FACS Emax ratio to BG87P” value with human claudin 6 (CLDN6) [9] and in the assay with cyno CLDN6 [10] was 1 ratio throughout. Moreover, the EC50 was 7.2 nM with cyno CLDN6 [11], 2.72 nM with human claudin 6 (CLDN6) [12] and 8.33 nM with human claudin 6 (CLDN6) [13]. Also, the “Emax ratio to BG87P” value with human claudin 6 (CLDN6) [12] and with human claudin 6 (CLDN6) [13] was 1 ratio throughout. For the same molecule, the “Top MFI Mean” value in the assay with human claudin 6 (CLDN6) [12] was 192000 MFI; with human claudin 6 (CLDN6) [13], 125000 MFI. Besides, the entries for the “EC50 (read off the curve)” value in the assay with cyno CLDN6 [14] and with human claudin 6 (CLDN6) [15] were roughly 7 nM and roughly 10 nM, respectively. Also, the binding result with human claudin 9 (CLDN9) was “no binding (tested: about 250 nM (log 2.4))”.

B5: BG87P-34 (antibody, V domains shown)
VH: EVQLQESGGGLVQPGGSLRLSCAASGYSFSDYHINWVRQAPGKGLEWVGYIYPGSGHTKYNEKFKGRFTISRDTSSNTAYLQMNSLRAEDTAVYYCARSGIYHYVSSYYFDHWGQGTLVTVSS
VL: DIQMTQSPSSLSASVGDRVTITCKASQDAGSAVAWYQQKPGKAPKLLIYWASTRHTGVPSRFSGSGSGTDFTLTISSLQPEDFATYYCQQYSSYTFGGGTKLEIK
notes: Framework-swapped final lead (IGHV3-23 / IGKV1-39); also called BG87-34
Take B5: the “FACS-Ec50 ratio to BG87P” value with human claudin 6 (CLDN6) [8] came out at 1.17 ratio. For the same molecule, the “FACS Emax ratio to BG87P” value with human claudin 6 (CLDN6) [9] is 1.03 ratio; in the assay with cyno CLDN6 [10], 1 ratio. The same molecule yielded an EC50 in the assay with cyno CLDN6 [11] of 8.8 nM. The “EC50 (read off the curve)” value with cyno CLDN6 [14] is roughly 9 nM; in the assay with human claudin 6 (CLDN6) [15], roughly 10 nM. For the same molecule, the values for the binding result with mouse CLDN6 and with human claudin 9 (CLDN9) were “binds” and “no binding (tested: about 250 nM (log 2.4))”, respectively.

These data come from patent US20240301062A1 (BEIGENE SWITZERLAND, published 2024).
